These are literature values, as cited in PMC6858787.

pKd: −log10 of the molar value.

This series concerns the target CheY (Thermotoga maritima) (UniProt Q56312).
UniProt Q56312, sequence (Q56312 whole entry): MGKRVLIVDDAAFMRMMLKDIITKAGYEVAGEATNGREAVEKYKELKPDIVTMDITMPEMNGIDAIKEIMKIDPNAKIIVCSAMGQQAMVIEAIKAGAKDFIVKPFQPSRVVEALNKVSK

With “CheA CheY binding domain (from UniProt Q56310)”, the pKd (as a rule, −log10 of the Kd, conventionally taken in molar units) is 6.70.
